Patent US11278600B2, “Human alpha-galactosidase variants” (Codexis, Inc., priority 2014, dated 2022)

B1: 50 (protein)
chain: LDNGLARTPTMGWLHWERFMCNLDCQEEPDSCISEKLFMEMAELMVSEGWKDAGYEYLCIDDCWMAPQRDSEGRLQADPQRFPHGIRQLANYVHSKGLKLGIYADVGNKTCAGFPGSFGYYDIDAQTFADWGVDLLKFDGCYCDSLENLADGYKHMSLALNRTGRSIVYSCEWPLYMWPSQKPNYTEIRQYCNHWRNFADIDDSWKSIKSILDWTSFNQERIVDVAGPGGWNDPDMLVIGNFGLSWNQQVTQMALWAIMAAPLFMSNDLRHISPQAKALLQDKDVIAINQDPLGKQGYQLRQGDNFEVWERPLSGLAWAVAMINRQEIGGPRSYTIAVASLGKGVACNPACFITQLLPVKRKLGFYEWTSRLRSHINPTGTVLLQLENTMQMSKDLLL
modifications: Synthetic Polypeptide sequence of Variant No. 50 of mature Human GLA
B2: 52 (protein)
chain: LDNGLARTPTMGWLHWERFMCNLDCQEEPDSCISEKLFMEMAELMVSEGWKDAGYEYLCIDDCWMAPQRDSEGRLQADPQRFPHGIRQLANYVHSKGLKLGIYADVGNKTCAGFPGSFGYYDIDAQTFADWGVDLLKFDGCYCDSLENLADGYKHMSLALNRTGRSIVYSCEWPLYMWPFQKPNYTEIRQYCNHWRNFADIDDSWKSIKSILDWTSDNQERIVDVAGPGGWNDPDMLVIGNFGLSWNQQVTQMALWAIMAAPLFMSNDLRHISPQAKALLQDKDVIAINQDPLGKQGYQLRQGDNFEVWERPLSGLAWAVAMINRQEIGGPRSYTIAVASLGKGVACNPACFITQLLPVKRKLGFYEWTSRLRSHINPTGTVLLQLENTMQMSKDLLL
modifications: Synthetic Polypeptide sequence of Variant No. 52 of mature Human GLA
B3: 57 (protein)
chain: LDNGLARTPTMGWLHWERFMCNLDCQEEPDSCISEKLFMEMAELMVSEGWKDAGYEYLCIDDCWMAPQRDSEGRLQADPQRFPHGIRQLANYVHSKGLKLGIYADVGNKTCAGFPGSFGYYDIDAQTFADWGVDLLKFDGCYCDSLENLADGYKHMSLALNRTGRSIVYSCEWPLYMWPFQKPNYTEIRQYCNHWRNFADIDDSWKSIKSILDWTSFNQERIVDVAGPGGWNDPDMLVIGNFGLSWNQQVTQMALWAIMAAPLFMSNDLRHISPQAKALLQDKDVIAINQDPLGKQGYQLRQGDNFEVWERPLSGLAWAVAMINRQEIGGPRSYTIAVASLGKGVACNPACFITQLLPVKRKLGKYEWTSRLRSHINPTGTVLLQLENTMQMSKDLLL
modifications: Synthetic Polypeptide sequence of Variant No. 57 of mature Human GLA
B4: 53 (protein)
chain: LDNGLARTPTMGWLHWERFMCNLDCQEEPDSCISEKLFMEMAELMVSEGWKDAGYEYLCIDDCWMAPQRDSEGRLQADPQRFPHGIRQLANYVHSKGLKLGIYADVGNKTCAGFPGSFGYYDIDAQTFADWGVDLLKFDGCYCDSLENLADGYKHMSLALNRTGRSIVYSCEWPLYMWPFQKPNYTEIRQYCNHWRNFADIDDSWKSIKSILDWTSRNQERIVDVAGPGGWNDPDMLVIGNFGLSWNQQVTQMALWAIMAAPLFMSNDLRHISPQAKALLQDKDVIAINQDPLGKQGYQLRQGDNFEVWERPLSGLAWAVAMINRQEIGGPRSYTIAVASLGKGVACNPACFITQLLPVKRKLGFYEWTSRLRSHINPTGTVLLQLENTMQMSKDLLL
modifications: Synthetic Polypeptide sequence of Variant No. 53 of mature Human GLA
B5: 55 (protein)
chain: LDNGLARTPTMGWLHWERFMCNLDCQEEPDSCISEKLFMEMAELMVSEGWKDAGYEYLCIDDCWMAPQRDSEGRLQADPQRFPHGIRQLANYVHSKGLKLGIYADVGNKTCAGFPGSFGYYDIDAQTFADWGVDLLKFDGCYCDSLENLADGYKHMSLALNRTGRSIVYSCEWPLYMWPFQKPNYTEIRQYCNHWRNFADIDDSWKSIKSILDWTSFNQERIVDVAGPGGWNDPDMLVIGNFGLSWNQQVTQMALWAIMAAPLFMSNDLRHISPQAKALLQDKDVIAINQDPLGKQGYQLRQGDNFEVWERPLSGLAWAVAMINRQEIGGPRSYTIAVASLGKGVACNPACVITQLLPVKRKLGIYEWTSRLRSHINPTGTVLLQLENTMQMSKDLLL
modifications: Synthetic Polypeptide sequence of Variant No. 55 of mature Human GLA
B6: 54 (protein)
chain: LDNGLARTPTMGWLHWERFMCNLDCQEEPDSCISEKLFMEMAELMVSEGWKDAGYEYLCIDDCWMAPQRDSEGRLQADPQRFPHGIRQLANYVHSKGLKLGIYADVGNKTCAGFPGSFGYYDIDAQTFADWGVDLLKFDGCYCDSLENLADGYKHMSLALNRTGRSIVYSCEWPLYMWPFQKPNYTEIRQYCNHWRNFADIDDSWKSIKSILDWTSFNQERIVDVAGPGGWNDPDMLVIGNFGLSWNQQVTQMALWAIMAAPLFMSNDLRHISPQAKALLQDKDVIAINQDPLGKQGYQLRQGDNFEVWERPLSGLAWAVAMINRQEIGGPRSYTIAVASLGKGVACNPACIITQLLPVKRKLGFYEWTSRLRSHINPTGTVLLQLENTMQMSKDLLL
modifications: Synthetic Polypeptide sequence of Variant No. 54 of mature Human GLA
B7: 56 (protein)
chain: LDNGLARTPTMGWLHWERFMCNLDCQEEPDSCISEKLFMEMAELMVSEGWKDAGYEYLCIDDCWMAPQRDSEGRLQADPQRFPHGIRQLANYVHSKGLKLGIYADVGNKTCAGFPGSFGYYDIDAQTFADWGVDLLKFDGCYCDSLENLADGYKHMSLALNRTGRSIVYSCEWPLYMWPFQKPNYTEIRQYCNHWRNFADIDDSWKSIKSILDWTSFNQERIVDVAGPGGWNDPDMLVIGNFGLSWNQQVTQMALWAIMAAPLFMSNDLRHISPQAKALLQDKDVIAINQDPLGKQGYQLRQGDNFEVWERPLSGLAWAVAMINRQEIGGPRSYTIAVASLGKGVACNPACFITQLLPVKRKLGIYEWTSRLRSHINPTGTVLLQLENTMQMSKDLLL
modifications: Synthetic Polypeptide sequence of Variant No. 56 of mature Human GLA
B8: 51 (protein)
chain: LDNGLARTPTMGWLHWERFMCNLDCQEEPDSCISEKLFMEMAELMVSEGWKDAGYEYLCIDDCWMAPQRDSEGRLQADPQRFPHGIRQLANYVHSKGLKLGIYADVGNKTCAGFPGSFGYYDIDAQTFADWGVDLLKFDGCYCDSLENLADGYKHMSLALNRTGRSIVYSCEWPLYMWPFQKPNYTEIRQYCNHWRNSADIDDSWKSIKSILDWTSFNQERIVDVAGPGGWNDPDMLVIGNFGLSWNQQVTQMALWAIMAAPLFMSNDLRHISPQAKALLQDKDVIAINQDPLGKQGYQLRQGDNFEVWERPLSGLAWAVAMINRQEIGGPRSYTIAVASLGKGVACNPACFITQLLPVKRKLGFYEWTSRLRSHINPTGTVLLQLENTMQMSKDLLL
modifications: Synthetic Polypeptide sequence of Variant No. 51 of mature Human GLA

Experiments:
Type in all cases: biochemical
[1] = HTP-analysis of supernatants pretreated with base (MUGal hydrolysis); settings: challenge at pH 7.1; activity of the variant/activity of WT GLA (SEQ ID NO: 5); yeast supernatant
Summary of the method: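 Supernatants from INVSc1 yeast expressing GLA variants (SD-Ura, 66-84 h, 30° C) were mixed with McIlvaine buffer pH 7.0-8.2 or 200 mM sodium bicarbonate pH 9.1-9.7 and held 1-18 h at 37° C. Residual activity was then measured on MUGal at pH 4.8/4.3, 37° C, 30-180 min, by fluorescence (Ex 355/Em 448 nm).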

[2] = HTP-analysis of supernatants pretreated with acid (MUGal hydrolysis); settings: challenge at pH 4.2; activity of the variant/activity of WT GLA (SEQ ID NO: 5); yeast supernatant
Summary of the method: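 Fluorescence of MUGal hydrolysis (Ex. 355 nm, Em. 448 nm) is read after sodium carbonate quench. The enzyme source is INVSc1 yeast culture supernatant, first exposed to pH 3.3-4.3 McIlvaine buffer at 37° C. for 1-3 h, then reacted at pH 4.8 for 30-180 minutes.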

[3] = HTP-analysis of yeast culture supernatants, no challenge (MUGal hydrolysis); settings: activity of the variant/activity of WT GLA (SEQ ID NO: 5), yeast supernatant
Summary of the method: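 GLA variants were expressed in INVSc1 yeast grown in SD-Ura broth with glucose at 30° C., and culture supernatants were collected after 66-84 h. Supernatant was mixed with McIlvaine buffer pH 4.8 and MUGal (2 mM stock) in 50 mM citrate, 200 mM KCl, pH 4.6, incubated at 37° C. for 30-180 minutes, then quenched with sodium carbonate.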

| Molecule | Relative Activity of GLA Variants After Challenge at pH 7.1 [1] | Relative Activity of GLA Variants After Challenge at pH 4.2 [2] | Relative Activity of GLA Variants After No Challenge (NC) [3] |
| --- | --- | --- | --- |
| B1 | ++ (++ = >1.5 to 2.5 relative activity over WT GLA (SEQ ID NO: 5)) | ++ (++ = >1.5 to 2.5 relative activity over WT GLA (SEQ ID NO: 5)) | ++ (++ = >1.5 to 2.5 relative activity over WT GLA (SEQ ID NO: 5)) |
| B2 | ++ (++ = >1.5 to 2.5 relative activity over WT GLA (SEQ ID NO: 5)) | + (+ = 0.5 to 1.5 relative activity over WT GLA (SEQ ID NO: 5)) | ++ (++ = >1.5 to 2.5 relative activity over WT GLA (SEQ ID NO: 5)) |
| B3 | ++ (++ = >1.5 to 2.5 relative activity over WT GLA (SEQ ID NO: 5)) | ++ (++ = >1.5 to 2.5 relative activity over WT GLA (SEQ ID NO: 5)) | ++ (++ = >1.5 to 2.5 relative activity over WT GLA (SEQ ID NO: 5)) |
| B4 | ++ (++ = >1.5 to 2.5 relative activity over WT GLA (SEQ ID NO: 5)) | ++ (++ = >1.5 to 2.5 relative activity over WT GLA (SEQ ID NO: 5)) | + (+ = 0.5 to 1.5 relative activity over WT GLA (SEQ ID NO: 5)) |
| B5 | ++ (++ = >1.5 to 2.5 relative activity over WT GLA (SEQ ID NO: 5)) | +++ (+++ = >2.5 relative activity over WT GLA (SEQ ID NO: 5)) | ++ (++ = >1.5 to 2.5 relative activity over WT GLA (SEQ ID NO: 5)) |
| B6 | + (+ = 0.5 to 1.5 relative activity over WT GLA (SEQ ID NO: 5)) | + (+ = 0.5 to 1.5 relative activity over WT GLA (SEQ ID NO: 5)) | + (+ = 0.5 to 1.5 relative activity over WT GLA (SEQ ID NO: 5)) |
| B7 | ++ (++ = >1.5 to 2.5 relative activity over WT GLA (SEQ ID NO: 5)) | ++ (++ = >1.5 to 2.5 relative activity over WT GLA (SEQ ID NO: 5)) | ++ (++ = >1.5 to 2.5 relative activity over WT GLA (SEQ ID NO: 5)) |
| B8 | + (+ = 0.5 to 1.5 relative activity over WT GLA (SEQ ID NO: 5)) | ++ (++ = >1.5 to 2.5 relative activity over WT GLA (SEQ ID NO: 5)) | ++ (++ = >1.5 to 2.5 relative activity over WT GLA (SEQ ID NO: 5)) |
